Laboratory results: IntAct's records for PubMed 15252009

B1: Formin-binding protein 1 (Homo sapiens), Q96RU3 (parent)
chain: MSWGTELWDQFDNLEKHTQWGIDILEKYIKFVKERTEIELSYAKQLRNLSKKYQPKKNSKEEEEYKYTSCKAFISNLNEMNDYAGQHEVISENMASQIIVDLARYVQELKQERKSNFHDGRKAQQHIETCWKQLESSKRRFERDCKEADRAQQYFEKMDADINVTKADVEKARQQAQIRHQMAEDSKADYSSILQKFNHEQHEYYHTHIPNIFQKIQEMEERRIVRMGESMKTYAEVDRQVIPIIGKCLDGIVKAAESIDQKNDSQLVIEAYKSGFEPPGDIEFEDYTQPMKRTVSDNSLSNSRGEGKPDLKFGGKSKGKLWPFIKKNKLMSLLTSPHQPPPPPPASASPSAVPNGPQSPKQQKEPLSHRFNEFMTSKPKIHCFRSLKRGLSLKLGATPEDFSNLPPEQRRKKLQQKVDELNKEIQKEMDQRDAITKMKDVYLKNPQMGDPASLDHKLAEVSQNIEKLRVETQKFEAWLAEVEGRLPARSEQARRQSGLYDSQNPPTVNNCAQDRESPDGSYTEEQSQESEMKVLATDFDDEFDDEEPLPAIGTCKALYTFEGQNEGTISVVEGETLYVIEEDKGDGWTRIRRNEDEEGYVPTSYVEVCLDKNAKDS
partner: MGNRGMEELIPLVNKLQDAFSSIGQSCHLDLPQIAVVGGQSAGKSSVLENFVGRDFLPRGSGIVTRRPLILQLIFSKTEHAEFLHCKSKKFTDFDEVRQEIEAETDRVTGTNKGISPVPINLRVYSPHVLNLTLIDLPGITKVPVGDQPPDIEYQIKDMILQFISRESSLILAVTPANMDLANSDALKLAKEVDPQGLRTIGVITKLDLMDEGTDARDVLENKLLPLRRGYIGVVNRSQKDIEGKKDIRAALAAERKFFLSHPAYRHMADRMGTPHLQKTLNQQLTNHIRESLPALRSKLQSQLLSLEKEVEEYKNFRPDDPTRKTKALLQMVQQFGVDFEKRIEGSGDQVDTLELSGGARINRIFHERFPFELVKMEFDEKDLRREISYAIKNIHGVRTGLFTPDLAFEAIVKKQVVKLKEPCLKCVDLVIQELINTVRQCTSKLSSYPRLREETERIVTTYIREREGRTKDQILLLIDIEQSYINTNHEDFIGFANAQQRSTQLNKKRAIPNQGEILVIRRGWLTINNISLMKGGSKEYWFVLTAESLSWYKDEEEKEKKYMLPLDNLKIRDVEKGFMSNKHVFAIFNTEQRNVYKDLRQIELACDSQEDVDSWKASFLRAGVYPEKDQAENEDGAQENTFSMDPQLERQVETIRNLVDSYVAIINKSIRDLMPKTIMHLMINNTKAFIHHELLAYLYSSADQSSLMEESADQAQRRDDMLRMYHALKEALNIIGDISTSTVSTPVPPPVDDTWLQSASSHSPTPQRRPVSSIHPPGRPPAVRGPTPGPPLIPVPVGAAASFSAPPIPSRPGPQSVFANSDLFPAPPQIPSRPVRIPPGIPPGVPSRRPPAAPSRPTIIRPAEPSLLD
B2: Formin-binding protein 1 (Homo sapiens), Q96RU3 (parent)
chain: B1 chain
partner: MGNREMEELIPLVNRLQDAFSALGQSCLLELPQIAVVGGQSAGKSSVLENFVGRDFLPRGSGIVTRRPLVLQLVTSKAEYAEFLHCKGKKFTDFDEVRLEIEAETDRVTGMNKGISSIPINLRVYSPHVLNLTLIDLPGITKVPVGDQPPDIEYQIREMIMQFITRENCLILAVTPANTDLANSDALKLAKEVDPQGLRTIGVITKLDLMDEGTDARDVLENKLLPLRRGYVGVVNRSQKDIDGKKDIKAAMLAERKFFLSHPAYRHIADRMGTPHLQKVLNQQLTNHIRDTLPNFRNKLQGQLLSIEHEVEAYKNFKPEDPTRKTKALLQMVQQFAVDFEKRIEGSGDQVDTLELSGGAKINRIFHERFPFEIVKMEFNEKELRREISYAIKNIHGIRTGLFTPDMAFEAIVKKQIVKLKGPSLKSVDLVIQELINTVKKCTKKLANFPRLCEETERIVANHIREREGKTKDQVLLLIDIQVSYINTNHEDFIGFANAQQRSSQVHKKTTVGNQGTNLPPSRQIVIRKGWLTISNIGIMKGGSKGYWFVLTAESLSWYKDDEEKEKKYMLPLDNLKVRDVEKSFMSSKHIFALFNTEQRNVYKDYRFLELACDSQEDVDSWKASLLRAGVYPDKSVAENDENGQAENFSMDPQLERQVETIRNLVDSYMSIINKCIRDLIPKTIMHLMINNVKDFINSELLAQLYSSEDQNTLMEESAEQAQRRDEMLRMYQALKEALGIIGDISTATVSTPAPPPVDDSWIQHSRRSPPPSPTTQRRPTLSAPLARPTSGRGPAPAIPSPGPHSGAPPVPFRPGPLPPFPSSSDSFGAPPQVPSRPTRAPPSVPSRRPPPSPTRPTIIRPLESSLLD
B3: Formin-binding protein 1 (Homo sapiens), Q96RU3 (parent)
chain: B1 chain
partner: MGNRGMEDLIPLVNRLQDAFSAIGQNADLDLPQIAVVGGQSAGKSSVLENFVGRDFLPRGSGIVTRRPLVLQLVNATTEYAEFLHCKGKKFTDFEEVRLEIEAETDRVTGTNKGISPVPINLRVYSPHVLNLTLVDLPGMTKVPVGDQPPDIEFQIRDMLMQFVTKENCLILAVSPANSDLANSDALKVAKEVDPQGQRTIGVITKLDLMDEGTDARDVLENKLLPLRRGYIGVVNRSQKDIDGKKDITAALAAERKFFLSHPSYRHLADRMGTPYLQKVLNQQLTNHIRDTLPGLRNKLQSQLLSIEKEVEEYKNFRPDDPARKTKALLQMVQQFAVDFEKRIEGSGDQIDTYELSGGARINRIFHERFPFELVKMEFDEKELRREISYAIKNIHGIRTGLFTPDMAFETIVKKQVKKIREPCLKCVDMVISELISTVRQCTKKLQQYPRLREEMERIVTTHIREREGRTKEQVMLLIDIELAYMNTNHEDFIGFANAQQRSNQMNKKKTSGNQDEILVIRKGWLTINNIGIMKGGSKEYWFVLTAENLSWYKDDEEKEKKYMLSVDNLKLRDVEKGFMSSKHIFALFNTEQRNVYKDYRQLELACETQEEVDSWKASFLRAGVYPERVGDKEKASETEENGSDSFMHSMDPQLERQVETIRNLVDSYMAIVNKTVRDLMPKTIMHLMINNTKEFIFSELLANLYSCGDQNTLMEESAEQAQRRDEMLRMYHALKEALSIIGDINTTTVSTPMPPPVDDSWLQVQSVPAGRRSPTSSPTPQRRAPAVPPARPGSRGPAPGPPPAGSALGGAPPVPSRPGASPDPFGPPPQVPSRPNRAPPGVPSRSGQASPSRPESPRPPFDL

Variants of: B1
Settings: with dyn2_human DNM2, P50570

| effect of a mutation on the interaction | Variant |
| --- | --- |
| decreasing interaction | P602L |

Variants of: B2
Settings: with dyn3_human DNM3, Q9UQ16

| effect of a mutation on the interaction | Variant |
| --- | --- |
| decreasing interaction | P602L |

Variants of: B3
Settings: with dyn1_human DNM1, Q05193

| effect of a mutation on the interaction | Variant |
| --- | --- |
| decreasing interaction | P602L |
